According to paper PMC3712289 (Nature structural & molecular biology, 2013):

T1: Rpn7 (S. cerevisiae, UniProt Q06103 1-429)
T1 sequence (looked up): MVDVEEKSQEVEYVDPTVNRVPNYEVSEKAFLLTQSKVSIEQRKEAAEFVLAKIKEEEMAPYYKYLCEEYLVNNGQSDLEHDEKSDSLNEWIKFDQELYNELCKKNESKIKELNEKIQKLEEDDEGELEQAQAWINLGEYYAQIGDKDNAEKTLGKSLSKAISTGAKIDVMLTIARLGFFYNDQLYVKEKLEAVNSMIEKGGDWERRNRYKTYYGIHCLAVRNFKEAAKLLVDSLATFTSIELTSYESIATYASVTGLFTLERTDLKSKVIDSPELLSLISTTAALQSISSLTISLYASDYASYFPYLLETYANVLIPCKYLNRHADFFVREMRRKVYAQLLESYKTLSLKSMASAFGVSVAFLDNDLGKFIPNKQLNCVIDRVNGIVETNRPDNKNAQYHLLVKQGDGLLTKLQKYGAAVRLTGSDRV

T2: Rpn5 (S. cerevisiae, UniProt Q12250 1-445)
T2 sequence (looked up): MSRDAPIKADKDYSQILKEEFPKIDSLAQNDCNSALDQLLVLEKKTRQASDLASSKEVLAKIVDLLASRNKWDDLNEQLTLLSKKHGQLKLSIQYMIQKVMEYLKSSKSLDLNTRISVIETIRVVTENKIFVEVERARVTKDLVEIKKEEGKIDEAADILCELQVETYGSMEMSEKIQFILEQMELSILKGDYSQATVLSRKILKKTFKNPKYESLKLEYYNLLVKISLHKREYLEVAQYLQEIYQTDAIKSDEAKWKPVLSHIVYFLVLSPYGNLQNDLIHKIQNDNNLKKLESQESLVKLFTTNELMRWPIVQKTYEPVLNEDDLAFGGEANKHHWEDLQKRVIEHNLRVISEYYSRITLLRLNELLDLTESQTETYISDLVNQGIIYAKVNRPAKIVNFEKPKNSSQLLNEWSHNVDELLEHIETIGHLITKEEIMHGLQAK

T3: Rpn6 (S. cerevisiae, UniProt Q12377 1-434)
T3 sequence (looked up): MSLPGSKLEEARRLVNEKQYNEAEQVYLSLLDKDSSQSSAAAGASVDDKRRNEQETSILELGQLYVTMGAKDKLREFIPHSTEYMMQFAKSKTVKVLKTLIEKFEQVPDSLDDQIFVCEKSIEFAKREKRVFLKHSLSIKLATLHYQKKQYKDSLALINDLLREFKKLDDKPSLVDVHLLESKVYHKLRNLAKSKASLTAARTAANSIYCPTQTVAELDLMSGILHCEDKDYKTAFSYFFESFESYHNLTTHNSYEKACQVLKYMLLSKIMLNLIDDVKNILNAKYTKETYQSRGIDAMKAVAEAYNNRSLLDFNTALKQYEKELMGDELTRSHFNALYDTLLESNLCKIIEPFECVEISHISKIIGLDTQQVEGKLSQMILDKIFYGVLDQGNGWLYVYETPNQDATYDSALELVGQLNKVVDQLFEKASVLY

T4: Rpt4 (S. cerevisiae, UniProt P53549 1-437)
T4 sequence (looked up): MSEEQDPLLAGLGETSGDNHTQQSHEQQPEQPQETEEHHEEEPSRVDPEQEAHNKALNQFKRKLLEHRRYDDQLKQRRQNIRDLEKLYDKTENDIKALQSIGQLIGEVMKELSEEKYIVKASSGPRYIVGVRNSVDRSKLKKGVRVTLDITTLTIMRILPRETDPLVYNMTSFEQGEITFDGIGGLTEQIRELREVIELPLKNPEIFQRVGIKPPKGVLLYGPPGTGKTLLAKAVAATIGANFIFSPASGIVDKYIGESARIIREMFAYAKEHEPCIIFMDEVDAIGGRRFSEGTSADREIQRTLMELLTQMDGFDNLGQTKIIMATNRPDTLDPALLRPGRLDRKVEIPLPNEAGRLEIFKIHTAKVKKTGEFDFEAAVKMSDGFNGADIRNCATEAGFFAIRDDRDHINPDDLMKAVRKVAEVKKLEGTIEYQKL

T5: Rpt5 (S. cerevisiae, UniProt P33297 1-434)
T5 sequence (looked up): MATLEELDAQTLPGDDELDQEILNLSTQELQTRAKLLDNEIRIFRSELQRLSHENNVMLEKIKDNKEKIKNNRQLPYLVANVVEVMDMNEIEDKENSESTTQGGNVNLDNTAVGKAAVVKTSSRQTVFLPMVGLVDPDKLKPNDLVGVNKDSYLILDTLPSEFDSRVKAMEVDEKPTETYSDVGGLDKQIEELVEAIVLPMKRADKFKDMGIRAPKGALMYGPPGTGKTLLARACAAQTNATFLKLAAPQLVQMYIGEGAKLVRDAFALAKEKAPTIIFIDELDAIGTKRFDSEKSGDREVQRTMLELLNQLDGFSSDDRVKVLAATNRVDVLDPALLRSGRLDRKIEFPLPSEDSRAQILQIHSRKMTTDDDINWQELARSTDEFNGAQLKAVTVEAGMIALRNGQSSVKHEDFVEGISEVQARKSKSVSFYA

B1: Rpt3 (natural protein, S. cerevisiae, UniProt P33298 1-428, looked up)
chain: MEELGIVTPVEKAVEEKPAVKSYASLLAQLNGTVNNNSALSNVNSDIYFKLKKLEKEYELLTLQEDYIKDEQRHLKRELKRAQEEVKRIQSVPLVIGQFLEPIDQNTGIVSSTTGMSYVVRILSTLDRELLKPSMSVALHRHSNALVDILPPDSDSSISVMGENEKPDVTYADVGGLDMQKQEIREAVELPLVQADLYEQIGIDPPRGVLLYGPPGTGKTMLVKAVANSTKAAFIRVNGSEFVHKYLGEGPRMVRDVFRLARENAPSIIFIDEVDSIATKRFDAQTGSDREVQRILIELLTQMDGFDQSTNVKVIMATNRADTLDPALLRPGRLDRKIEFPSLRDRRERRLIFGTIASKMSLAPEADLDSLIIRNDSLSGAVIAAIMQEAGLRAVRKNRYVILQSDLEEAYATQVKTDNTVDKFDFYK
B2: Rpt6 (natural protein, S. cerevisiae, UniProt Q01939 1-405, looked up)
chain: MTAAVTSSNIVLETHESGIKPYFEQKIQETELKIRSKTENVRRLEAQRNALNDKVRFIKDELRLLQEPGSYVGEVIKIVSDKKVLVKVQPEGKYIVDVAKDINVKDLKASQRVCLRSDSYMLHKVLENKADPLVSLMMVEKVPDSTYDMVGGLTKQIKEIKEVIELPVKHPELFESLGIAQPKGVILYGPPGTGKTLLARAVAHHTDCKFIRVSGAELVQKYIGEGSRMVRELFVMAREHAPSIIFMDEIDSIGSTRVEGSGGGDSEVQRTMLELLNQLDGFETSKNIKIIMATNRLDILDPALLRPGRIDRKIEFPPPSVAARAEILRIHSRKMNLTRGINLRKVAEKMNGCSGADVKGVCTEAGMYALRERRIHVTQEDFELAVGKVMNKNQETAISVAKLFK
B3: Rpn10 (natural protein, S. cerevisiae, UniProt P38886 1-268, looked up)
chain: MVLEATVLVIDNSEYSRNGDFPRTRFEAQIDSVEFIFQAKRNSNPENTVGLISGAGANPRVLSTFTAEFGKILAGLHDTQIEGKLHMATALQIAQLTLKHRQNKVQHQRIVAFVCSPISDSRDELIRLAKTLKKNNVAVDIINFGEIEQNTELLDEFIAAVNNPQEETSHLLTVTPGPRLLYENIASSPIILEEGSSGMGAFGGSGGDSDANGTFMDFGVDPSMDPELAMALRLSMEEEQQRQERLRQQQQQQDQPEQSEQPEQHQDK

Columns and labels:
Assay in all cases: cryo-EM structure
[1] = target: T1, Rpn7
[2] = target: T2, Rpn5
[3] = target: T3, Rpn6
[4] = target: T4, Rpt4
[5] = target: T5, Rpt5

Binder	binding result [1]	binding result [2]	binding result [3]	binding result [4]	binding result [5]
B1	binds	binds	binds		
B2	binds				
B3				binds	binds
